Measurements published in IntAct's records for PubMed 19805317.

B1: Voltage-dependent calcium channel gamma-2 subunit (Homo sapiens), Q9Y698 (parent)
chain: MGLFDRGVQMLLTTVGAFAAFSLMTIAVGTDYWLYSRGVCKTKSVSENETSKKNEEVMTHSGLWRTCCLEGNFKGLCKQIDHFPEDADYEADTAEYFLRAVRASSIFPILSVILLFMGGLCIAASEFYKTRHNIILSAGIFFVSAGLSNIIGIIVYISANAGDPSKSDSKKNSYSYGWSFYFGALSFIIAEMVGVLAVHMFIDRHKQLRATARATDYLQASAITRIPSYRYRYQRRSRSSSRSTEPSHSRDASPVGIKGFNTLPSTEISMYTLSRDPLKAATTPTATYNSDRDNSFLQVHNCIQKENKDSLHSNTANRRTTPV

Variants of: B1
Conditions: with gria1_rat Gria1, P19490
Chain of gria1_rat Gria1, P19490 (P19490 whole entry): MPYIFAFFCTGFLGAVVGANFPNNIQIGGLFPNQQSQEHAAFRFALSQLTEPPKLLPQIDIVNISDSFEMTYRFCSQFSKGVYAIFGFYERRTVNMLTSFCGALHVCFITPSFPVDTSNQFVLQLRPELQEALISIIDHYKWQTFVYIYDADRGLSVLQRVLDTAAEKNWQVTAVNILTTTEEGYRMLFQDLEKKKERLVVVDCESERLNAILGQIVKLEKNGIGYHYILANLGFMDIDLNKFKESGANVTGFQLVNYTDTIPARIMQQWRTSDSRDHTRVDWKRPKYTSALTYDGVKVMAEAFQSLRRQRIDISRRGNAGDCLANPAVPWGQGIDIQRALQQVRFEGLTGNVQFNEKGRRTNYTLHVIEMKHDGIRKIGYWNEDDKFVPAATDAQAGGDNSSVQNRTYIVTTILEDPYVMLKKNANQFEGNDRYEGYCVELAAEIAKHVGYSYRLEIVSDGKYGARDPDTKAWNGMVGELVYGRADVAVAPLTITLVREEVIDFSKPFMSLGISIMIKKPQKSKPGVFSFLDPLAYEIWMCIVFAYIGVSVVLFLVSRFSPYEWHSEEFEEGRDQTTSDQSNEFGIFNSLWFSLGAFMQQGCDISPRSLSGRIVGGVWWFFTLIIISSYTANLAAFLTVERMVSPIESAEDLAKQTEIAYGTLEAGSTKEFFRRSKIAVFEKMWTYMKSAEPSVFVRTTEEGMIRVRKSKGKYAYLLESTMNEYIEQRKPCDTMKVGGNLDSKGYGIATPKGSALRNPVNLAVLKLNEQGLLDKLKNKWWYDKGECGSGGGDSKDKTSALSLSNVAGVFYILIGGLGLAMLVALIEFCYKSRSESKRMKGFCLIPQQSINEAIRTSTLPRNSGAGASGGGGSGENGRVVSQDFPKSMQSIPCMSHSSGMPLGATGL

Variant	effect of a mutation on the interaction
C302S	decreasing interaction
